From article doi:10.1101/2025.02.11.637337 (bioRxiv, 2025) come the findings set out here.

The data set “crystal structure” concerns the molecule itself. The experiment in a line: crystal structure.
The data set “SEC + native gel or EMSA” deals with the molecule itself. The experiment in a line: SEC + native gel or EMSA. For orientation: In EMSA bound probe runs differently from free probe, usually more slowly.

Substitutions are numbered along the chain they refer to. Names may count otherwise.

B1: Fr-H6(E53H/E56H/E57H/R59H/E60H/E63H) (natural protein, horse)
chain: SSQIRQNYSTEVEAAVNRLVNLYLRASYTYLSLGFYFDRDDVALEGVCHFFRHLAHHKHHGAHRLLKMQNQRGGRALFQDLQKPSQDEWGTTLDAMKAAIVLEKSLNQALLDLHALGSAQADPHLCDFLESHFLDEEVKLIKKMGDHLTNIQRLVGSQAGLGEYLFERLTLKHD
The term stoichiometry N denotes the number of molecules, sites or subunits per partner or assembly. In the case of B1, the “stoichiometry N” value in the data set “crystal structure” came out at 24.

B2: Fr-H4in(R52H/E56H/R59H/E63H) (natural protein, horse)
chain: B1 chain with R52H, H53E, H57E, H60E
As to B2, the “stoichiometry N” value in the data set “SEC + native gel or EMSA” came to 24.

B3: Fr-H2(E53H/E57H) (natural protein, horse)
chain: B1 chain with H56E, H59R, H60E, H63E
As for B3, the “stoichiometry N” value in the data set “SEC + native gel or EMSA” stood at 24.

B4: Fr-H8(R52H/E53H/E56H/E57H/R59H/E60H/E63H/R64H) (natural protein, horse)
chain: B1 chain with R52H, R64H
Regarding B4, the “stoichiometry N” value in the data set “crystal structure” was 24.

B5: Fr-H4ex(E53H/E57H/E60H/R64H) (natural protein, horse)
chain: B1 chain with H56E, H59R, H63E, R64H
As for B5, the “stoichiometry N” value in “SEC + native gel or EMSA” came out at 24.
